# Test results published in paper PMC10548220, “Development and evaluation of nanobody tracers for noninvasive nuclear imaging of the immune-checkpoint TIGIT” (Frontiers in Immunology, 2023).
# Assays:
# CD155 (Homo sapiens) = CD155 (Homo sapiens) (UniProt P15151); details: cited from earlier work
# [1] = target: T1, recombinant human TIGIT-Fc carrier-free protein (Homo sapiens (Human)., UniProt Q495A1); assay: SPR; Biacore T200; recombinant m/hTIGIT-Fc immobilised on a CM5 chip; Nbs injected, eight two-fold dilutions from 200 nM, 10 µl/min, 25°C; HBS pH 7.4 (0.01 M HEPES, 0.15 M NaCl, 3 mM EDTA, 0.005% Tween 20); fit 1:1 binding with drift and RI2; details: both partners purified
# T1 construct: T cell Ig and ITIM domain receptor (TIGIT), human; also called hTIGIT-Fc; recombinant hTIGIT; source: bought: Biolegend
# [2] = target: T2, recombinant human TIGIT-Fc carrier-free protein (Homo sapiens (Human)., UniProt Q495A1-1); assay: SPR; Biacore T200; m/hTIGIT-Fc (10 µg/mL in 10 mM Na-acetate pH 4.0) immobilised on a CM5 chip; Nbs or scFv injected in two-fold dilutions from 200 nM, 10 µl/min, 25°C; HBS pH 7.4 (0.01 M HEPES, 0.15 M NaCl, 3 mM EDTA, 0.005% Tween 20); fit 1:1 binding with drift and RI2; details: both partners purified
# T2 construct: T cell Ig and ITIM domain receptor (TIGIT), human; also called hTIGIT-Fc; human TIGIT recombinant protein; source: bought: Biolegend (Cat. No. 768608)
# [3] = target: recombinant mouse TIGIT-Fc carrier-free protein (mouse) (UniProt P86176); assay: SPR; Biacore T200; recombinant m/hTIGIT-Fc immobilised on a CM5 chip; Nbs injected, eight two-fold dilutions from 200 nM, 10 µl/min, 25°C; HBS pH 7.4 (0.01 M HEPES, 0.15 M NaCl, 3 mM EDTA, 0.005% Tween 20); fit 1:1 binding with drift and RI2
# [4] = target: T3, recombinant mouse TIGIT-Fc carrier-free protein (Mus musculus, UniProt A0A0B4J1G6); assay: SPR; Biacore T200; m/hTIGIT-Fc (10 µg/mL in 10 mM Na-acetate pH 4.0) immobilised on a CM5 chip; Nbs or scFv injected in two-fold dilutions from 200 nM, 10 µl/min, 25°C; HBS pH 7.4 (0.01 M HEPES, 0.15 M NaCl, 3 mM EDTA, 0.005% Tween 20); fit 1:1 binding with drift and RI2; details: both partners purified
# T3 construct: T cell Ig and ITIM domain receptor (TIGIT), mouse; also called mTIGIT-Fc; mouse TIGIT recombinant protein; source: bought: Biolegend (Cat. No. 771808)
# T3 sequence (P86176 29-148): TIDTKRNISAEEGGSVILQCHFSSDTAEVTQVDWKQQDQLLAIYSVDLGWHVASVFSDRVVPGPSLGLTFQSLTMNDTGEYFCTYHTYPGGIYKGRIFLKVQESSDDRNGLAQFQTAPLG
# T1 sequence (Q495A1 22-141): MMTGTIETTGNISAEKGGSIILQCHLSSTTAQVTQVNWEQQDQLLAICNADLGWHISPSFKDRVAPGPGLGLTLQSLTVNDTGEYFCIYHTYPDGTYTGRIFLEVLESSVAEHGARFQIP
# T2 sequence (Q495A1 22-141): as above
# Sequence of TIGIT (Q495A1 22-141): as above
# Sequence of recombinant mouse TIGIT-Fc carrier-free protein (mouse) (P86176 29-148): as the sequence (P86176 29-148) above
Kd [1],koff [2],kon [2],Molecule,other results
–,–,–,TIGIT (from UniProt Q495A1),Kd (CD155 (Homo sapiens)): 2 nM
0.345 ± 0.001 nM,–,–,"anti-hTIGIT nanobody 17010 (VHH, Cloned into pHen6 after PCR with primers A6E and PMCF; also called Nb 17010; source: E. coli WK6, periplasmic extract, purified (Ni-NTA, SEC); not shown: His6, C-terminal, kept) VHH: QVQLQESGGGSVQTGGSLRLSCAASNGFSINAMGWYRQSPGKQRELVARITSGSSTNYTNYADSVKGRFTISRDNAKNTGYLEMNLLKPEDTAVYYCHADVLLGGLQGLIQRFWGQGTQVTVSS",–
–,0.000803 s⁻¹,2.33e+06 M⁻¹ s⁻¹,"anti-hTIGIT Nb 17010 (VHH, nanobody from an immunized llama; Cloned in pHen6 after PCR with primers A6E and PMCF; source: E. coli WK6, periplasmic extract, purified (Ni-NTA, SEC); not shown: His6, C-terminal, kept) VHH: QVQLQESGGGSVQTGGSLRLSCAASNGFSINAMGWYRQSPGKQRELVARITSGSSTNYTNYADSVKGRFTISRDNAKNTGYLEMNLLKPEDTAVYYCHADVLLGGLQGLIQRFWGQGTQVTVSS",–
0.753 ± 0.002 nM,–,–,"anti-hTIGIT nanobody 16920 (VHH, Cloned into pHen6 after PCR with primers A6E and PMCF; source: E. coli WK6, periplasmic extract, purified (Ni-NTA, SEC); not shown: His6, C-terminal, kept) VHH: QVQLQESGGGFVQAGGSLRLSCAASSISSIYAMDWYRQAPGKQREFVAGITSGGTTNYGSTVKGRFTISRDESKNTVDLQMNSLKPEDSAVYVCRATISWKIYSGQGTQVTVSS",–
–,0.00426 s⁻¹,5.66e+06 M⁻¹ s⁻¹,"anti-hTIGIT Nb 16920 (VHH, nanobody from an immunized llama; Cloned in pHen6 after PCR with primers A6E and PMCF; source: E. coli WK6, periplasmic extract, purified (Ni-NTA, SEC); not shown: His6, C-terminal, kept) VHH: QVQLQESGGGFVQAGGSLRLSCAASSISSIYAMDWYRQAPGKQREFVAGITSGGTTNYGSTVKGRFTISRDESKNTVDLQMNSLKPEDSAVYVCRATISWKIYSGQGTQVTVSS",–
1.974 ± 0.004 nM,–,–,"anti-hTIGIT nanobody 16925 (VHH, Cloned into pHen6 after PCR with primers A6E and PMCF; labelled with 99mTc on the His6 tag for the in vivo work; also called lead hTIGIT Nb; source: E. coli WK6, periplasmic extract, purified (Ni-NTA, SEC); not shown: His6, C-terminal, kept) VHH: QVQLQESGGGLVQAGGSLRLSCAASSISSINAMGWYRQPPGKQRELVARITFGHSTNYADSVKGRFTISRDNAKSTVYLQMNSLKPEDTAVYYCNADLLLNTQAIRAWGQGTQVTVSS",–
–,0.000911 s⁻¹,462000 M⁻¹ s⁻¹,"anti-hTIGIT Nb 16925 (VHH, nanobody from an immunized llama; Cloned in pHen6 after PCR with primers A6E and PMCF; source: E. coli WK6, periplasmic extract, purified (Ni-NTA, SEC); not shown: His6, C-terminal, kept) VHH: QVQLQESGGGLVQAGGSLRLSCAASSISSINAMGWYRQPPGKQRELVARITFGHSTNYADSVKGRFTISRDNAKSTVYLQMNSLKPEDTAVYYCNADLLLNTQAIRAWGQGTQVTVSS",–
0.116 ± 0.001 nM,–,–,"anti-hTIGIT nanobody 17037 (VHH, Cloned into pHen6 after PCR with primers A6E and PMCF; also called Nb 17037; source: E. coli WK6, periplasmic extract, purified (Ni-NTA, SEC); not shown: His6, C-terminal, kept) VHH: QVQLQESGGGLVQAGGSLRLSCAASSTLSIDDMGWYRQAPEKHREFVATISRGGSTNYAASVKGRFTISRDNAKNTVFLQMNNLKSEDTAVYYCRATSTWRYYWAQGTQVTVSS",–
–,0.00157 s⁻¹,1.36e+07 M⁻¹ s⁻¹,"anti-hTIGIT Nb 17037 (VHH, nanobody from an immunized llama; Cloned in pHen6 after PCR with primers A6E and PMCF; source: E. coli WK6, periplasmic extract, purified (Ni-NTA, SEC); not shown: His6, C-terminal, kept) VHH: QVQLQESGGGLVQAGGSLRLSCAASSTLSIDDMGWYRQAPEKHREFVATISRGGSTNYAASVKGRFTISRDNAKNTVFLQMNNLKSEDTAVYYCRATSTWRYYWAQGTQVTVSS",–
–,–,–,"anti-mTIGIT Nb 16979 (VHH, nanobody from an immunized llama; Cloned in pHen6 after PCR with primers A6E and PMCF; source: E. coli WK6, periplasmic extract, purified (Ni-NTA, SEC); not shown: His6, C-terminal, kept) VHH: QVQLQESGGGLVQAGESLRLSCAASIIVSDNIMAWYRQSPGKQREIVALISSTGTINYVDSVKGRFTISRDNAKNTLNLQMTKLKPEDTAVYYCSGRTLRVYWGQGTQVTVSS",Kd [3]: 846 nM; koff [4]: 0.114 s⁻¹; kon [4]: 134000 M⁻¹ s⁻¹
